Laboratory results reported in paper PMC4992421 (Nature immunology, 2016).

Legend:
Test in all cases: SPR
[1] = target: KIR3DS1-Fc (human, UniProt Q14943)
[2] = target: KIR3DL2-Fc (human, UniProt P43630)
[3] = target: KIR3DL1-Fc (human, UniProt P43629)
Sequence of KIR3DL1-Fc (P43629 22-340): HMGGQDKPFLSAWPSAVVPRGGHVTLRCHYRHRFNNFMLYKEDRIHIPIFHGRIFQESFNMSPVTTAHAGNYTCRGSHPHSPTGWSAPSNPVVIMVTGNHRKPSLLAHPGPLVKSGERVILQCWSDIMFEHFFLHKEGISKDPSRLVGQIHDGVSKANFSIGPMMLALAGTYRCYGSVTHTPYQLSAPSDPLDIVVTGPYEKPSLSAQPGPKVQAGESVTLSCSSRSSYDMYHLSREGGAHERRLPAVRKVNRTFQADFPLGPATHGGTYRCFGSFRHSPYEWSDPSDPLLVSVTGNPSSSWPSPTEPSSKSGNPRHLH

Sequence of KIR3DS1-Fc (Q14943 22-340): as the sequence (P43629 22-340) above, with I47V, S58G, V92M, K136R, G138W, P163S, L166R, P199L, P315L counted along it
Sequence of KIR3DL2-Fc (P43630 22-340): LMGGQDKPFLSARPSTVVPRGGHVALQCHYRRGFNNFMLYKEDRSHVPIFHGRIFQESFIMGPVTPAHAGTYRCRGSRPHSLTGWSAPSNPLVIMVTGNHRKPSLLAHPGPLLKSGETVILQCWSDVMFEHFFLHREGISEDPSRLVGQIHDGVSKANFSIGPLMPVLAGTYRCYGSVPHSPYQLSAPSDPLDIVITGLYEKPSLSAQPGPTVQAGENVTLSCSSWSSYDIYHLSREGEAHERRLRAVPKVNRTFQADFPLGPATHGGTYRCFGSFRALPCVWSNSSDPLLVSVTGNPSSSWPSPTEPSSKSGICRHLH

B1: HLA-F open conformer (natural protein)
MHC heavy: GSHSLRYFSTAVSRPGRGEPRYIAVEYVDDTQFLRFDSDAAIPRMEPREPWVEQEGPQYWEWTTGYAKANAQTDRVALRNLLRRYNQSEAGSHTLQGMNGCDMGPDGRLLRGYHQHAYDGKDYISLNEDLRSWTAADTVAQITQRFYEAEEYAEEFRTYLEGECLELLRRYLENGKETLQRADPPKAHVAHHPISDHEATLRCWALGFYPAEITLTWQRDGEEQTQDTELVETRPAGDGTFQKWAAVVVPPGEEQRYTCHVQHEGLPQPLILRWEQSPQPTIPI
modifications: biotin (biotinylated monomer, site not stated)
[1]
  Kd: 25 nM
  koff: 0.0007 s⁻¹
  kon: 28400 M⁻¹ s⁻¹
[2]
  Kd: 118 nM
  koff: 0.00508 s⁻¹
  kon: 43000 M⁻¹ s⁻¹
[3]
  Kd: 157 nM
  koff: 0.00691 s⁻¹
  kon: 44000 M⁻¹ s⁻¹
